Assay: In vitro enzyme assay: formation of vanillin with isoeugenol as the substrate
Format: biochemical
Settings: purified recombinant protein; 10 mM isoeugenol, pH 7.0, 30° C., 10 min; negative control heat-denatured enzyme gave no vanillin
Procedure: The enzyme activity of the putative isoeugenol monooxygenase was assayed by measuring the formation of vanillin with isoeugenol as the substrate. The reaction mixture contained 10 mM isoeugenol, 100 mM potassium phosphate buffer (pH 7.0), 10% (v/v) ethanol and an appropriate amount of enzyme, in a total volume of 1 ml. The reaction was started, by adding isoeugenol as ethanol solution, carried out at 30° C. for 10 min with reciprocal shaking (160 strokes min^−1) and stopped with the addition of 1 ml of methanol. After centrifugation at […], the supernatant was analyzed by HPLC for the determination of isoeugenol and vanillin and vanillyl alcohol. VpIEM enzyme treated in boiling water for 5 minutes was used as the negative control.
HPLC analysis of isoeugenol and vanillin was carried out with a Vanquish Ultimate 3000 system. Intermediates were separated by reverse-phase chromatography on a Dionex Acclaim 120 C18 column (particle size 3 μm; 150 by 2.1 mm) with a gradient of 0.15% (volume/volume) acetic acid (eluant A) and methanol (eluant B) in a range of 60 to 100% (vol/vol) eluant B and at a flow rate of 0.4 ml/min. For quantification, all intermediates were calibrated with external standards. The compounds were identified by their retention times, as well as the corresponding spectra, which were identified with a diode array detector in the system.

B1: VpIEM: putative isoeugenol monooxygenase from Violaceomyces palustris, expressed in E. coli and purified (protein, listed as Violaceomyces paulstris)
chain: MAPAPTVQDAAPVAVAVPSKATNKGSFVHPTDILPSGWPTATDLSGGAQPRRFEGTIYDVMVRGTIPKELHGTFYRIMPDYAEAPTYYKGGELNAPIDGDGTVAAFRFKDGNVDYRQRFVETDRFKVERRARKSMYGLYRNPYTHHPCVRQTVDSTANTNVVMHAGRFLAMKENGNAYELDPHTLKTLGYNPFKLPSKTMTAHPKQDAVTGNLVGFGYEAKGLATKDVYYFEVDTQGNIVHDLWLEAPWCAFIHDCALTPNYLVLMLWPFEADIERMKAGGHHWAYDYDKPITWITIPRGAKSKDEVKYWYWKNGMPIHTAAGYEDEKGRIIIDSSLVHGNAFPFFPPDSEEQRKRQEADGTPIAQFVRWTIDPSKDPNERLPDPEVVLDTPSEFPQIDNRFMGKEYSSAFINVFMPDRSDTGKNVFQGLNGLCHYRRKEGTADFYYAGDNCLIQEPVFSPRSKDAPEGDGFVLAIVDRLDANRSEVVIIDTRDFTKAVAAVQLPFAIRSGIHGQWIQGNTIPDFDTRGLVDLPKEEHWAPPEASAYDPNM
modifications: (1)..(551) Amino Acid Sequence of VpIEM
conversion of isoeugenol to vanillin (enzyme activity, HPLC): able to catalyze the conversion of isoeugenol to vanillin

Source: US20240052381A1, “BIOSYNTHESIS OF VANILLIN FROM ISOEUGENOL” (BASF SE, priority 2020, published 2024)
